Assay [1] addresses T1, methylated H3K4 peptides (panel of biotinylated histone tail peptides) (Homo sapiens, UniProt P68431).
T1 construct: purchased Upstate Biotechnology
Briefly: Histone peptide binding (pull-down) assay with biotinylated histone peptides. The conditions noted are these: for preference for methylation state of H3K4 peptides: pull-down with biotinylated histone peptides, anti-GST immunoblot. The procedure:
(§1) FIG. 3 The ASHH2 CW domain binds histone H3 tails methylation on lysine 4. (A) Cartoon of the ASHH2 protein with CW, AWS and KMT (SET domain) indicated. The two recombinant proteins used in this study are also illustrated. (B) SDS-PAGE of purified GST and GST-ASHH2-CW. (C) Pull-down assay using biotinylated histone peptides and recombinant GST, GST-ASHH2-CW and GST-ING2-PHD as indicated. The ratio of proteins and peptides were 0.5 μg:0.5 μg. (D) Pull-down assay using biotinylated histone peptides and recombinant GST and GST-ASHH2-CW as indicated. The ratio of proteins and peptides were 1.0 μg:0.5 μg. (E) Surface plasmon resonance traces from an experiment with immobilised, biotinylated H3K4me1 peptide and GST-ASHH2-CW. (F) Dissociation constants for GST-ASHH2-CW and the three H3K4me peptides indicated calculated from surface plasmon resonance data. The number of replicates are indicated.
(§2) FIG. 4 CW domains from four different proteins bind methylated H3K4 peptides. (A) Cartoons of the proteins studied: human MORC4, Arabidopsis VAL1, and human ZCWPW1. (B, C) Pull-down assay using biotinylated histone peptides and (B) recombinant GST, GST-Val1-CW and GST-MORC4-CW or (C) GST, GST-ASHH2-CW, and GST-ZCWPW1-CW, as indicated. The ratio of proteins and peptides were equimolar.
(§3) FIG. 7 Probing the predicted histone tail binding site with mutant CW domains. […] The predicted binding site for the histone tail is indicated as in FIG. 6D. (B and C) Pull-down assays using biotinylated histone peptides and recombinant GST and GST-ASHH2-CW mutant proteins as indicated. The ratio of proteins and peptides were 1.0 μg:0.5 μg.
(§4) Histone peptide binding assays were performed as described by Shi et al (2006) with biotinylated histone peptides from Upstate Biotechnology. The protein-peptide ratio used is indicated in the legends to the figures. Bound proteins were visualized by immunoblotting using rabbit anti-GST antibodies Z-5 (SC-456) from Santa Cruz at a 1:20,000 dilution, and a donkey anti-rabbit HRP conjugate (Amersham NA934) at a 1:10,000 dilution.
A general note: Immunoblotting shows a protein as a band on a membrane.

The next assay deals with T2, H3K4me3 peptide (Homo sapiens, UniProt P68431).
T2 construct: purchased Upstate Biotechnology
Briefly: Histone peptide binding (pull-down) assay, H3K4me3 peptide. To be noted: protein:peptide 0.5 μg:0.5 μg. As to the method:
as §1, §4

The test system of assay [2] is chromatin associated with genes regulated by ASHH2. Briefly: Chromatin pulldown (ChPD) followed by qPCR on ASHH2 target genes. The format is binding, Arabidopsis. The conditions noted are these: seedling chromatin; GST alone as negative control. The text has this:
(§5) FIG. 8 Chromatin pulldown (ChPD) using the ASHH2 CW. […] Modified histones were visualised by western blot using antibodies as indicated. Molecular size markers are shown to the right. (B) qPCR with primers for assumed ASHH2 target genes on DNA isolated from seedling chromatin pulled down with GST-CWASHH2. ChPD with GST alone was used as a negative control. Data are shown as percent of input. The Ta3 retrotransposon was used as reference. Standard deviations are shown. (C) ChIP using antibodies against H3K4me1, H3K4me3 and H3K36me3 and primers for the same genes as in (B). Data are shown relative to Ta3. (D) ChPD from wt and ashh2 mutant seedlings as in (A) using antibodies as indicated. ChPD with GST alone was used as a negative control and histone H3 as reference.
(§6) Chromatin pull-down (ChPD) was performed using crude chromatin in ChIP dilution buffer (1.1% Triton X-100, 1.2 mM EDTA, 16.7 mM Tris-HCL pH 8, 167 mM NaCl) prepared as for ChIP (Gendrel et al., 2005) incubated with 8 μg GST-CW fusion protein and control proteins (only GST alone, or together with GST-CW-W874A and GST-WIYLD) over night. For western blotting, the pulled down chromatin was washed three times in ChIP dilution buffer, run on a 15% SDS-PAGE and blotted onto a PVDF membrane. […]
(Real-time PCR tracks product formation cycle by cycle.)

Assay [3] concerns the target biotinylated H3 peptide trimethylated on lysine 4 (H3K4me3) (Homo sapiens, UniProt P68431). As to the kind of experiment: Surface plasmon resonance (BIAcore T100) binding to immobilised H3K4me3 peptide. The conditions noted are these: GST-tagged protein 0.1 μM to 10 μM, HBS-P buffer. As to the method: (§7) Surface plasmon resonance binding assays were performed on a BIAcore T100 biosensor according to the manufacturers protocols using immobilized, biotinylated H3 peptides monomethylated (0.54 ng), dimethylated (0.24 ng), or trimethylated (0.48 ng) on lysine 4. GST-tagged ASHH2 CW protein in five different concentrations in a range from 0.1 μM to 10 μM was injected for 2 min at a flow rate of 10 μl/min. Each sample injection was followed by injection of HBS-P buffer (10 mM HEPES pH 7; 150 mM NaCl) alone for 5 min at a flow rate of 5 μl/min. Kd values were obtained using the Biacore T100 Evaluation software 2.0.1. Measurements were repeated 2 to 5 times.
For orientation: Surface plasmon resonance follows binding to a sensor surface in real time, without labels.

Assay [4] relates to H3K4me2 in Arabidopsis chromatin. Briefly: Chromatin pulldown (ChPD), western blot quantification, H3K4me2. The format is binding. The conditions noted are these: chromatin from Arabidopsis seedlings, anti-H3K4me2 western blot.
Excerpt: as §5, §6

Assay [5] deals with H3K4me1 in Arabidopsis chromatin. Briefly: Chromatin pulldown (ChPD), western blot quantification, H3K4me1. In kind it is binding. The conditions noted are these: chromatin from Arabidopsis seedlings, anti-H3K4me1 western blot.
Excerpt: as §5, §6

Assay [6] relates to methylated H3K4 peptides (panel of biotinylated histone tail peptides). Briefly: Histone peptide binding (pull-down) assay with biotinylated histone peptides. To be noted: panel incl. trimethylated H3K27 and H3K36 peptides. As to the method:
as §1, §2, §3, §4

In assay [7] the test system is H3K4 methylated chromatin. Briefly: Chromatin pulldown (ChPD) with western blot detection. The conditions noted are these: antibodies against each of the three H3K4 methylation states; Arabidopsis seedling chromatin. The format is binding.
Excerpt: as §5, §6

The target in assay [8] is biotinylated H3 peptide monomethylated on lysine 4 (H3K4me1) (Homo sapiens, UniProt P68431). Briefly: Surface plasmon resonance (BIAcore T100) binding to immobilised H3K4me1 peptide. To be noted: GST-tagged protein 0.1 μM to 10 μM, HBS-P buffer. The procedure:
as §7

For assay [9], the target named is biotinylated H3 peptide dimethylated on lysine 4 (H3K4me2) (Homo sapiens, UniProt P68431). As to the kind of experiment: Surface plasmon resonance (BIAcore T100) binding to immobilised H3K4me2 peptide. To be noted: GST-tagged protein 0.1 μM to 10 μM, HBS-P buffer. As to the method: as §7
In assay [10] the target is T3, three methylated forms of H3K27-peptides (Homo sapiens, UniProt P68431).
T3 construct: purchased Upstate Biotechnology
As to the kind of experiment: Histone peptide binding (pull-down) assay, methylated H3K27 peptides. The conditions noted are these: protein:peptide 1.0 μg:0.5 μg. The procedure: as §1, §4

B1: GST-ZCWPW1-CW: human ZCWPW1 CW domain (nt 714-942, from HEK293 cDNA) as GST fusion protein (protein)
chain: IRDQQKGEISGFGQCLVWVQCSFPNCGKWRRLCGNIDPSVLPDNWSCDQNTDVQYNRCDIPEETWTGLESDVAYAS
modifications: left off: a dimerising Fc or GST
notes: human ZCWPW1 CW domain (nt 714-942, from HEK293 cDNA) as GST fusion protein
For B1, the “preference for methylation state of H3K4 peptides” value (shortened to “preference for methylation state”) in [1] is “clear preference for H3 Kme2 and me3 peptides”.

B2: W865A: GST-ASHH2-CW mutant, tryptophan 865 to alanine (protein)
chain: MVVDVTIEDSYSTESAAVRCDDCFKWRRIPASVVGSIDESSRWICMNNSDKRFADCSKSQEMSNEEINEELGIGQDEADAYDCDAAKRG
modifications: left off: a dimerising Fc or GST; large carriers; small tags and cut ends
notes: GST-ASHH2-CW mutant, tryptophan 865 to alanine
Consider B2, for which the “histone tail binding of mutant ASHH2 CW domains” value in assay [1] (pull-down, protein:peptide 1.0 μg:0.5 μg) is given as “abolished histone tail binding”.

B3: GST-MORC4-CW: human MORC4 CW domain (nt 1236-1422, from HEK293 cDNA) as GST fusion protein (protein)
chain: TVARPIPKVPDQTWVQCDECLKWRKLPGKIDPSMLPARWFCYYNSHPKYRRCSVPEEQELTD
modifications: also: GST fusion partner not part of the given chain
notes: human MORC4 CW domain (nt 1236-1422, from HEK293 cDNA) as GST fusion protein
As for B3, the “preference for methylation state” value in assay [1] is given as “preference for H3K4me2”.

B4: GST-Val1-CW: Arabidopsis VAL1 CW domain (nt 1575-1797) as GST fusion protein (protein)
chain: VFGKRTIVTTKPSGEQERWATCDDCSKWRRLPVDALLSFKWTCIDNVWDVSRCSCSAPEESLKELENVLKVGRE
modifications: left off: a dimerising Fc or GST
notes: Arabidopsis VAL1 CW domain (nt 1575-1797) as GST fusion protein
On to B4, for which the “preference for methylation state” value is “strongest preference for K4me3” in assay [1] (listed as VAL1); “clear preference for H3 Kme2 and me3 peptides” in assay [1] (listed as VAL1 CW).

B5: GST-ASHH2-CW: Arabidopsis ASHH2 CW domain (nt 2547-2811) expressed and purified as a GST-fusion protein from bacteria (protein)
chain: VVDVTIEDSYSTESAWVRCDDCFKWRRIPASVVGSIDESSRWICMNNSDKRFADCSKSQEMSNEEINEELGIGQDEADAYDCDAAKRG
modifications: left off: a dimerising Fc or GST
notes: Arabidopsis ASHH2 CW domain (nt 2547-2811) expressed and purified as a GST-fusion protein from bacteria
In general, Kd refers to the free concentration of one partner at which half of the binding sites on the other are occupied at equilibrium, for simple one-to-one binding. Low readings indicate higher affinity, high ones lower affinity. Turning to B5, the “binding to the H3K4me3 peptide” value with H3K4me3 peptide was “close to background levels”. For the same molecule, the “binding of chromatin associated with ASHH2-regulated genes (real-time PCR)” value in [2] is reported as “significantly above background levels”. In addition, the Kd in assay [3] was determined as 4000 nM; in assay [8], 1150 nM; in assay [9], 2100 nM. The “bound H3K4me2 chromatin relative to input chromatin” value in assay [4] was 3.3 times of input material (2.5%). Besides, the “bound H3K4me1 chromatin relative to input chromatin” value in [5] is on record as 4.4 times of input material (2.5%). Besides, the “sequence selectivity on histone peptide panel” value in assay [6] is given as “only binds the methylated H3K4 peptides”. Moreover, in [1], the “preference for methylation state” value was “preference for mono- and dimethylated H3K4 peptides”. Also, in assay [7], the “pull down of H3K4 methylated chromatin (western blot signal)” value is listed as “Strong signals”. The “binding to methylated H3K27-peptides” value in [10] was “no binding was observed”.

The values are drawn from patent US20140148355A1, “COMPOSITIONS AND METHODS FOR ANALYSIS OF H3K4 METHYLATED CHROMATIN” (UNIVERSITY OF OSLO, priority 2011, published 2014).
